This data set in a line: Determination of structural forms by Superdex G-75 column elution. Format: physicochemical. To be noted: for Peak profile / Retention Time: Superdex G-75 column (HR 10/30), phosphate buffered saline pH 7.4, flow rate 0.4 ml/min, sample 1.2 mg/ml; for Structural form (monomeric or polymeric): concluded from retention time and peak profile versus positive control [B28Lys, B29Pro] human insulin. The protocol:
[…] A preparation of each analogue is passed through Superdex G-75 column (HR 10/30). HI and [B28Lys, B29Pro] insulin (Lispro) are used as negative and positive controls respectively. Phosphate buffered saline pH 7.4 is used as an elution buffer and the flow rate fixed at 0.4 ml/min. The concentration of the sample preparation is 1.2 mg/ml.

“[B12Thr]Hl: insulin analogue in which the 12th amino acid of the B-chain of human insulin (Val) is substituted by Thr”: the Peak profile result was “Symmetrical”, the “Retention Time” value is 39.4 min and the “Structural form (monomeric or polymeric)” value was “monomeric”.

In the case of “Hl: human insulin, used as negative control [reference compound]”, the Peak profile result is “Unsymmetrical” and the “Retention Time” value amounted to 36.4 min.

In the case of “[B26Ala]Hl: human insulin analogue with replacement of Tyr by Ala in position B26”, the Peak profile entry is “Symmetrical”, the “Retention Time” value was 38.9 min and the “Structural form (monomeric or polymeric)” value is given as “monomeric”.

As to “[B28Lys, B29Pro]Hl: commercial monomeric insulin with inversion of amino acids 28 and 29 of the B chain of human insulin; positive control [reference compound]”, the Peak profile entry is “Symmetrical” and the “Retention Time” value turned out to be 39.4 min.

“[B16Ala]Hl: human insulin analogue with replacement of Tyr by Ala in position B16”: the Peak profile result was “Symmetrical”, the “Retention Time” value was 38.3 min and the “Structural form (monomeric or polymeric)” value is recorded as “monomeric”.

The values above are taken from patent publication US6800606B1, “Monomeric analogues of human insulin” (Shanghai Institute of Biochemistry, priority 1999, dated 2004).
